# T1: human ecto-nucleoside triphosphate diphosphohydrolase-3 (NTPDase3) (human, UniProt O75355 1-529)
# T1 construct: whole, on cells; O75355 is the entry it names for human NTPDase3; also called hENTPD3; human ENTPD3
# T1 sequence (looked up): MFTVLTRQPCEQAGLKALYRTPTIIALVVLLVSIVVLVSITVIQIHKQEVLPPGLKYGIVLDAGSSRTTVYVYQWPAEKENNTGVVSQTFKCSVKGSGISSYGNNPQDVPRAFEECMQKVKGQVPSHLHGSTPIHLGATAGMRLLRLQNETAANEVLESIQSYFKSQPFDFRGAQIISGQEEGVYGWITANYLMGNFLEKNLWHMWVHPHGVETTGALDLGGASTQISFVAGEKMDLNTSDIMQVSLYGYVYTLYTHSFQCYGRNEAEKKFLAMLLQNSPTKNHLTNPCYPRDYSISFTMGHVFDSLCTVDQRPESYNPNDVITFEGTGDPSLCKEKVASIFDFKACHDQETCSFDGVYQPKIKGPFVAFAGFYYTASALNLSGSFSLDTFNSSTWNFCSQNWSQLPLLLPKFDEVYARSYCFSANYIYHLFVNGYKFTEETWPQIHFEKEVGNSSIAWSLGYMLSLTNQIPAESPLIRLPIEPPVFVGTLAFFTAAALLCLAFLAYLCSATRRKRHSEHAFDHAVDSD
# B1: PBI #30 hIgG1 (antibody, V domains shown)
# VH: QVQLQESGGGLIQPGGSLRLSCAASGFTSSSSDYAMSWVRQAPGKGLEWVSSISGSGGSTYYADSVKGRFTISRDNSKNTLYVQMTSLTAEDTAVYYCAKVVGYSMYDYYYHYALDVWGQGTTVTVSS
# VL: QPVLTQPPSASGTPGQRVTISCSGSSSNIGSNTVNWYQQLPGTAPKLLIYSNNQRPSGVPDRFSGSKSGTSASLTISGLKTEDEAGYYCQSYDTSNVVFGGGTKVTVLG
# notes: Fully human IgG1; also called clone PBI #30; original clone PBI #30 hIgG1
# Experiments:
# [1] = target: T1, human ecto-nucleoside triphosphate …; assay: flow cytometry on CHO-hENTPD3 cells, 2 hours at 37 °C (FIG. 19)
# Description: (§1) FIG. 19. Affinity of the fully human anti-hENTPD3 monoclonal antibody PBI #30 hIgG1 measured by flow cytometry using CHO-hENTPD3 and COS7-hENTPD3 cells. Generally, FIG. 19 and following are directed to analyses of anti-hENTPD3 monoclonal antibody clones that have been further optimized exemplary (e.g., affinity maturation and isotype switching for PBI #30 and humanization of 8E1 and 38D5) and related detection methods.
# [2] = target: T1, human ecto-nucleoside triphosphate …; assay: flow cytometry on COS7-hENTPD3 cells, 2 hours at 37 °C (FIG. 19)
# Description: as §1
# [3] = target: T1, human ecto-nucleoside triphosphate …; assay: flow cytometry on HEK293T-hENTPD3 cells, 30 minutes at 4 °C (FIG. 3)
# Description: FIG. 3. Affinity of PBI #30 measured by flow cytometry using hENTPD3 positive HEK293T cells (stably transfected cells).
# [4] = target: T1, human ecto-nucleoside triphosphate …; assay: cell-based or functional assay
# [5] = target: T1, human ecto-nucleoside triphosphate …; assay: flow cytometry on COS7-hENTPD3 cells, 30 minutes at 4 °C (FIG. 2)
# Description: FIG. 2. Affinity of PBI #30 measured by flow cytometry using hENTPD3 positive COS-7 cells (stably transfected cells).
# [6] = target: T1, human ecto-nucleoside triphosphate …; assay: cell-based or functional assay; remark: listed apart in the source
# [7] = target: T1, human ecto-nucleoside triphosphate …; assay: flow cytometry on CHO-hENTPD3 cells, 30 minutes at 4 °C (FIG. 1)
# Protocol: FIG. 1. Affinity of PBI #30 measured by flow cytometry using human ENTPD3 (hENTPD3) positive CHO cells (stably transfected cells). PBI #30 was serially diluted as indicated (top dose 333 nM) and incubated with CHO-hENTPD3 cells for 30 minutes at 4° C., followed by secondary antibody staining (anti-human IgG (Fc specific), Alexa Fluor® 488) for 30 minutes at 4° C. and flow cytometry analysis.
# [8] = target: T1, human ecto-nucleoside triphosphate …; assay: flow cytometry on RT4 bladder cancer cells (endogenous hENTPD3), 30 minutes at 4 °C (FIG. 4)
# Description: FIG. 4. Affinity of PBI #30 measured by flow cytometry using RT4 bladder cancer cells that endogenously express hENTPD3.
binder,measurement,setting,value
B1,Kd,[1],2.96 nM
same,Kd,[2],1.82 nM
same,Kd,[3],8.4 nM
same,"ADCC EC50, NFAT luciferase reporter Jurkat/hCD16a-158V",[4],0.092 µg/mL
same,"EC50 of hENTPD3 enzyme activity inhibition, CHO-hENTPD3 cells, antibody 30 minutes",[4],17.3 µg/mL
same,Kd,[5],11.9 nM
same,"ADCC EC50 (µg/mL), NFAT luciferase reporter Jurkat/hCD16a-158V",[6],1.44 µg/mL
same,Enzyme Activity Inhibition Capacity: % of Maximal Inhibition,[6],76%
same,Enzyme Activity Inhibition Capacity: EC50,[6],2.51 µg/mL
same,Kd,[7],5.53 nM
same,Kd,[8],10.1 nM

# — patent US20240052061A1 (PURINOMIA BIOTECH, published 2024)
